Assay results taken from article PMC8466066, “Searching for Biological Function of the Mysterious PA2504 Protein from Pseudomonas aeruginosa” (International Journal of Molecular Sciences, 2021).

Target: the molecule itself
Assay: SEC-MALS; purified recombinant PA2504 on a Superdex200 column with HELEOS light scattering instrument; 50 mM Tris-Cl pH 7.0, 300 mM NaCl, 0.5 mL/min

B1: His6-tagged PA2504, recombinant, purified from E. coli (plasmid pQE2504) (natural protein)
chain: MASWTLVDASAIAVRHPYTFYKPDAETIDRVAAGESVKLIFAFDTDNPDAPRAERLWVTVEGIEADGAFSGRLDNYPQYIRDLSLGERIVFEARHIINTEHDPRETPISRYARRCFVTRRVIDEGKAVGYLYREAPEEENDSGWRLMAGDESDDYMNTAGTTAYVSLGSVLNADDSILPLLDAPPGRAFERLADGSFIEVQGPEG
notes: PA2504, uncharacterised protein of Pseudomonas aeruginosa; the PA2504 gene without the start codon cloned into pQE-80L; Dimer by SEC-MALS; No removal of the tag is described; also called His6PA2504; recombinant PA2504 protein; source: E. coli BL21-DE3, purified (Ni-NTA)
B1 was tested, and the “stoichiometry N” value was 2.
